Test results published in paper PMC7481934 (Nature, 2020).

T1: StrepII-mGFP-Bre1 (S. cerevisiae, UniProt Q07457 1-700)
T1 sequence (looked up): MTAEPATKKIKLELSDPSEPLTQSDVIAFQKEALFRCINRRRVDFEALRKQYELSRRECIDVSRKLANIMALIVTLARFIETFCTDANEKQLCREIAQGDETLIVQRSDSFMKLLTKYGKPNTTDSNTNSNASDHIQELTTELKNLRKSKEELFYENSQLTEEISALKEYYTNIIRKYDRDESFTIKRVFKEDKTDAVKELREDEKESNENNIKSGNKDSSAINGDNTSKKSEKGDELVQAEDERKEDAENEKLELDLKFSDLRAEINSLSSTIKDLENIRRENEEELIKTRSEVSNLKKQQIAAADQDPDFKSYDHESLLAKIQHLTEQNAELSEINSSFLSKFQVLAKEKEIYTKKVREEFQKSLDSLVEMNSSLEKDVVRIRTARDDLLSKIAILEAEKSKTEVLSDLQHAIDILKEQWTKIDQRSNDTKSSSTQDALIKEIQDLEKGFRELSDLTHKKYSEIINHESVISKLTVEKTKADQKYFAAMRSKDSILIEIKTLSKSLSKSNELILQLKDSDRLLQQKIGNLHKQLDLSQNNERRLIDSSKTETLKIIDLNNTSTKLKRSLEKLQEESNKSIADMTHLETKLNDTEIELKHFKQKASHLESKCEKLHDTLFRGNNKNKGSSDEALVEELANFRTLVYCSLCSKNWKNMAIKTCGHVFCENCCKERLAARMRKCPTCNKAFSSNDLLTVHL

T2: StrepII-Bre1 (S. cerevisiae, UniProt Q07457 1-700)
T2 sequence (looked up): T1 sequence (looked up)

T3: 6His-Lge1-StrepII (S. cerevisiae, UniProt Q02796 1-332)
T3 sequence (looked up): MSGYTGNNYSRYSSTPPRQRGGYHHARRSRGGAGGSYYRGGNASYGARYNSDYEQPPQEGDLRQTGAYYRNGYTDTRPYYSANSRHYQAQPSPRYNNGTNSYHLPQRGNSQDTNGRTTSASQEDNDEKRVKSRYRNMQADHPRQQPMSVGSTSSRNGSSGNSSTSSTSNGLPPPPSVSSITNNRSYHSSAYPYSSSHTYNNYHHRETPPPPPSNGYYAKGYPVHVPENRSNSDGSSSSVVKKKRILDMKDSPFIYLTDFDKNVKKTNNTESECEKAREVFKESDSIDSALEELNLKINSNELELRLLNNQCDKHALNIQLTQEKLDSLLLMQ

B1: Pacific Blue-labelled 6His-TEV-Rad6 (enzyme, S. cerevisiae, UniProt P06104 1-172, looked up)
chain: MSTPARRRLMRDFKRMKEDAPPGVSASPLPDNVMVWNAMIIGPADTPYEDGTFRLLLEFDEEYPNKPPHVKFLSEMFHPNVYANGEICLDILQNRWTPTYDVASILTSIQSLFNDPNPASPANVEAATLFKDHKSQYVKRVKETVEKSWEDDMDDMDDDDDDDDDDDDDEAD
modifications: Pacific Blue C5-Maleimide label
B2: StrepII-Bre1 Lge1 Binding Domain (residues 308-632) (domain or fragment, S. cerevisiae, UniProt Q07457 308-632, looked up)
chain: QDPDFKSYDHESLLAKIQHLTEQNAELSEINSSFLSKFQVLAKEKEIYTKKVREEFQKSLDSLVEMNSSLEKDVVRIRTARDDLLSKIAILEAEKSKTEVLSDLQHAIDILKEQWTKIDQRSNDTKSSSTQDALIKEIQDLEKGFRELSDLTHKKYSEIINHESVISKLTVEKTKADQKYFAAMRSKDSILIEIKTLSKSLSKSNELILQLKDSDRLLQQKIGNLHKQLDLSQNNERRLIDSSKTETLKIIDLNNTSTKLKRSLEKLQEESNKSIADMTHLETKLNDTEIELKHFKQKASHLESKCEKLHDTLFRGNNKNKGSSD
B3: GST-Lge1-StrepII (natural protein, S. cerevisiae, UniProt Q02796 1-332, looked up)
chain: T3 sequence (looked up)
B4: GST-Lge1 CC-StrepII (domain or fragment, S. cerevisiae, UniProt Q02796 243-332, looked up)
chain: KRILDMKDSPFIYLTDFDKNVKKTNNTESECEKAREVFKESDSIDSALEELNLKINSNELELRLLNNQCDKHALNIQLTQEKLDSLLLMQ
B5: GST-Lge1 IDR-StrepII (domain or fragment, S. cerevisiae, UniProt Q02796 1-242, looked up)
chain: MSGYTGNNYSRYSSTPPRQRGGYHHARRSRGGAGGSYYRGGNASYGARYNSDYEQPPQEGDLRQTGAYYRNGYTDTRPYYSANSRHYQAQPSPRYNNGTNSYHLPQRGNSQDTNGRTTSASQEDNDEKRVKSRYRNMQADHPRQQPMSVGSTSSRNGSSGNSSTSSTSNGLPPPPSVSSITNNRSYHSSAYPYSSSHTYNNYHHRETPPPPPSNGYYAKGYPVHVPENRSNSDGSSSSVVKK
B6: StrepII-mGFP-Bre1 LBD (domain or fragment, S. cerevisiae, UniProt Q07457 308-632, looked up)
chain: B2 chain

Tests used:
StrepII-mGFP-Bre1 = target: T1, StrepII-mGFP-Bre1; assay: recruitment to reconstituted condensates
GST-Lge1-StrepII = target: B3; assay: pull-down
StrepII-Bre1 = target: T2, StrepII-Bre1; assay: pull-down
co-sedimentation = target: the molecule itself; assay: co-sedimentation
6His-Lge1-StrepII = target: T3, 6His-Lge1-StrepII; assay: recruitment to reconstituted condensates

B1
binding result (StrepII-mGFP-Bre1): binds

B2
binding result (GST-Lge1-StrepII): binds

B3
binding result (StrepII-Bre1): binds

B4
binding result (StrepII-Bre1): binds

B5
binding result (co-sedimentation): binds

B6
binding result (6His-Lge1-StrepII): binds
